This note sets out measurements from paper PMC3443378 (Molecular Microbiology, 2012).

Among the targets are PrfA L120V (Listeria monocytogenes P14, UniProt P22262 1-237, L120V); PrfA L48F/G145S (Listeria monocytogenes P14, UniProt P22262 1-237, L48F;G145S); PrfA I69W (Listeria monocytogenes P14, UniProt P22262 1-237, I69W); PrfA S71L/G145S (Listeria monocytogenes P14, UniProt P22262 1-237, S71L;G145S); PrfA L48F (Listeria monocytogenes P14, UniProt P22262 1-237, L48F); PrfA E36R (Listeria monocytogenes P14, UniProt P22262 1-237, E36R); PrfA E36Q (Listeria monocytogenes P14, UniProt P22262 1-237, E36Q); PrfA F29M (Listeria monocytogenes P14, UniProt P22262 1-237, F29M); PrfA V80L (Listeria monocytogenes P14, UniProt P22262 1-237, V80L); PrfA S71L (Listeria monocytogenes P14, UniProt P22262 1-237, S71L); PrfA WT (Listeria monocytogenes P14, UniProt P22262 1-237); PrfA Y63W (Listeria monocytogenes P14, UniProt P22262 1-237, Y63W); PrfA*sup G145S/E173G (Listeria monocytogenes P14, UniProt P22262 1-237, G145S;E173G); PrfA Y63W/G145S (Listeria monocytogenes P14, UniProt P22262 1-237, Y63W;G145S).

Holding throughout (assay): SPR
Background: SPR reads the build-up and loss of mass on a sensor chip optically.

B1: PactA PrfA box 40-mer (dsDNA)
DNA 1: GGTCGGAGTTAACTGATTAACAAATGTTAGAGAAAACTTA
DNA 2: TAAGTTTTCTCTAACATTTGTTAATCAGTTAACTCCGACC
Consider B1, for which the Kd with PrfA L120V is 1590 17; in the data set with PrfA L48F/G145S, 239 60; in the data set with PrfA I69W it was 392 76; with PrfA S71L/G145S it was 67 1; with PrfA L48F, 20800 262; in the data set with PrfA E36R it was 1080 10. The Kd was 801 67 in the data set with PrfA E36Q; 267 15 with PrfA F29M; 1400 54 with PrfA V80L; 741 59 with PrfA S71L; 1360 24 in the data set with PrfA WT; 1660 14 with PrfA Y63W. The Kd with PrfA*sup G145S/E173G was 32000 528; with PrfA Y63W/G145S it was 29 1.

B2: PplcA/hly PrfA box 40-mer (dsDNA)
DNA 1: TGTCCCTTTATCGTCGTTAACAAATGTTAATGCCTCGACA
DNA 2: TGTCGAGGCATTAACATTTGTTAACGACGATAAAGGGACA
Regarding B2, the Kd with PrfA L120V is 3120 37; in the data set with PrfA L48F/G145S it was 15 1; with PrfA I69W it was 347 43; with PrfA S71L/G145S, 75 1; with PrfA L48F it was 5260 101; in the data set with PrfA E36R, 1440 13. Also, the Kd in the data set with PrfA E36Q was 1360 11; in the data set with PrfA F29M it was 288 45; in the data set with PrfA V80L it was 1780 47; with PrfA S71L it was 695 42; with PrfA WT it was 1100 49; with PrfA Y63W, 1160 86. Also, the figures for the Kd with PrfA*sup G145S/E173G and in the data set with PrfA Y63W/G145S were 10500 317 and 9 1, respectively.
